Values quoted from earlier work, collected in publication PMC5472405.

Target: CXCR4 (Homo sapiens) (UniProt P61073)
Sequence (P61073 whole entry): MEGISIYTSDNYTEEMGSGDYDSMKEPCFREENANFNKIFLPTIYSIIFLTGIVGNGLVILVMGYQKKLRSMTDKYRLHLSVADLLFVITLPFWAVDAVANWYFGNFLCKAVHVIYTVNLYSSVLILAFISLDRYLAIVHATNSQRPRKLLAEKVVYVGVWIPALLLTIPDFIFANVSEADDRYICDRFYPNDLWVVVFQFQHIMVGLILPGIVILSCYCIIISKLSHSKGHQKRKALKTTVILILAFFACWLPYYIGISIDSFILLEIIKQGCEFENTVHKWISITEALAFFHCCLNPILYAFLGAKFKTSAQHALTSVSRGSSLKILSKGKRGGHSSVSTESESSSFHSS

Sequence of CXCL14 (O95715 35-111): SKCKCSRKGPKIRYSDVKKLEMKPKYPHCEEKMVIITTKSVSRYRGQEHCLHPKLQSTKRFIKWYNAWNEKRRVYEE

- Kd: 14.7 nM
Substance: CXCL14 (from UniProt O95715)
